The source of these data is patent US9061070B2, “Treating stroke and other diseases without inhibiting N-type calcium channels” (NoNO, Inc., priority 2007, dated 2015).

Like-named read-outs stand apart in the source and are kept apart here. Where no end group is shown, it is not given here. [ ]: non-standard residue; d: D form. Tle = CC(C)(C)[C@H](N)C(=O)O; Nva = CCC[C@H](N)C(=O)O

One data set concerns the target N-type calcium channels (Mus musculus, UniProt O55017). The data set is described as follows: Whole-cell patch clamp recordings of calcium currents in dorsal root ganglion neurons. It is filed as cell-based, Swiss mice. Background: Patch clamp records ionic current or voltage across a cell membrane.
The conditions of data set [1]: cited from earlier work.
Data set [2] deals with pial 3 vessel occlusion (P3VO) model of stroke. Briefly: Pial vessel occlusion (P3VO) model of permanent ischemia. It is filed as in vivo, Sprague Dawley rats. Conditions: for reduction of infarct size: single dose 3 nmol/g one hour after initiating ischemia, FIG. 3.
The target of another data set is N-type Ca channels (Homo sapiens, UniProt Q00975). The data set is classed as binding. Conditions: 10 μM peptide.
Another data set relates to MCAO model of stroke. The following applies: previously tested; cited from earlier work.
Where [3] appears, read: peptide at 100 μM, mean+/-s.e.m., DRG neurons.
The mark [4] stands for this setting: 3 nMol/g i.v. one hour after occlusion, 24 h, FIG. 8.

N-type calcium channels, sequence (O55017 whole entry): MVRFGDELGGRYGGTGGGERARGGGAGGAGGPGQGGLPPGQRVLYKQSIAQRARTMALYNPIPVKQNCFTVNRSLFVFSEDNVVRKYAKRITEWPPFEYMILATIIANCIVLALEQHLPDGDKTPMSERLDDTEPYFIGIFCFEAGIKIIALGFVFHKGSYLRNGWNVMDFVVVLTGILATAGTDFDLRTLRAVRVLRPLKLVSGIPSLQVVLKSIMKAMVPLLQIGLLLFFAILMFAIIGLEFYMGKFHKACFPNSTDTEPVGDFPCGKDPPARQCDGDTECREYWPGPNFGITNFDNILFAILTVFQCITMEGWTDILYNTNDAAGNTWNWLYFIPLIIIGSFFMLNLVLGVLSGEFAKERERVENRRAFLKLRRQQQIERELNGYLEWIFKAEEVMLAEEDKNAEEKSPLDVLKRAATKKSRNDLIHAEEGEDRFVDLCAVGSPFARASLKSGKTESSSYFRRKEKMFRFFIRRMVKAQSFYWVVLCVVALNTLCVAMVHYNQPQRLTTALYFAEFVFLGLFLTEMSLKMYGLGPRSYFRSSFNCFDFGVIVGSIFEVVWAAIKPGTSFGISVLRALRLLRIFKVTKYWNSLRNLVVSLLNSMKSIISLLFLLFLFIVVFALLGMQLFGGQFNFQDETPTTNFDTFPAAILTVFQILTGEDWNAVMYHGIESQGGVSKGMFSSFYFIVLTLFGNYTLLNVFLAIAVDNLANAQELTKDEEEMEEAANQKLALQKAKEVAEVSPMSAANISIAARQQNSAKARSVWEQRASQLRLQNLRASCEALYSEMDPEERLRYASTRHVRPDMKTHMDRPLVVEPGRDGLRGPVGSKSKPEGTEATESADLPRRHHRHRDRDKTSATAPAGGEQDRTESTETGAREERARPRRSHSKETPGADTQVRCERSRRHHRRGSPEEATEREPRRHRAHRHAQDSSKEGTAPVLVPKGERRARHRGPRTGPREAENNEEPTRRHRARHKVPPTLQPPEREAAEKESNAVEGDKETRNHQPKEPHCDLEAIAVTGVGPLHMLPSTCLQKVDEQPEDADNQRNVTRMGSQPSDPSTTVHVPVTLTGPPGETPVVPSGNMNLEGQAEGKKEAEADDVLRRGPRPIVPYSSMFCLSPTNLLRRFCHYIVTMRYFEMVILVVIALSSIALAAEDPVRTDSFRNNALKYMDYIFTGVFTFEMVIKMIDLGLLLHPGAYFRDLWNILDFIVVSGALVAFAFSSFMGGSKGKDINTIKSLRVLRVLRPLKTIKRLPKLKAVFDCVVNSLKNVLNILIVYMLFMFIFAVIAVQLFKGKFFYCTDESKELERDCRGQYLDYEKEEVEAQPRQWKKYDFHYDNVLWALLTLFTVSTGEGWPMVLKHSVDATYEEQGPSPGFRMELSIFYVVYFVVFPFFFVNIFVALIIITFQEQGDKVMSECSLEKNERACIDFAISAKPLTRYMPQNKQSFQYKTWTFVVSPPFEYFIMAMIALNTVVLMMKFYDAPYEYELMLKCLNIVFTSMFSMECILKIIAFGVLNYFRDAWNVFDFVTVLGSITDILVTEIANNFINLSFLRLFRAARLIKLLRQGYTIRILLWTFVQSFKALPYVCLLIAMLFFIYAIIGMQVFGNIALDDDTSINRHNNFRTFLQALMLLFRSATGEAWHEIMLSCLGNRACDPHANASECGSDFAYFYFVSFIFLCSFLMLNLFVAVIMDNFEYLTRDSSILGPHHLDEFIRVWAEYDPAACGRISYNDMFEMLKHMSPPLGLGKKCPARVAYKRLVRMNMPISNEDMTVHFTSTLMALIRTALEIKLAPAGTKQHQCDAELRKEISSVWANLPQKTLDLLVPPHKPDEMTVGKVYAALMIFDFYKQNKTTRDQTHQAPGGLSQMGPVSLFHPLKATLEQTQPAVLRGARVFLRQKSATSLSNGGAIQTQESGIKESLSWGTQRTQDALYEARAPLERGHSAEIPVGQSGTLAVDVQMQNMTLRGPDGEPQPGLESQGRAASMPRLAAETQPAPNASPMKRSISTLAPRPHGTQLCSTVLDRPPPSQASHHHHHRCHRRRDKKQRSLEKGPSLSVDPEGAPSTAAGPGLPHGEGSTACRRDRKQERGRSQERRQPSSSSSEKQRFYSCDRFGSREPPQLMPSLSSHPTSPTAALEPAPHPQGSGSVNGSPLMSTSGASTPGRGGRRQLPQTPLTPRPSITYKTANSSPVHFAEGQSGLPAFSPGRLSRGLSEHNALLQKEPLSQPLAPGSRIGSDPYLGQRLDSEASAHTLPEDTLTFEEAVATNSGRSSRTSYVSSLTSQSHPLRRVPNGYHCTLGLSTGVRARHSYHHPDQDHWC
N-type calcium channels, sequence (O08532 25-956 partner limits assumed): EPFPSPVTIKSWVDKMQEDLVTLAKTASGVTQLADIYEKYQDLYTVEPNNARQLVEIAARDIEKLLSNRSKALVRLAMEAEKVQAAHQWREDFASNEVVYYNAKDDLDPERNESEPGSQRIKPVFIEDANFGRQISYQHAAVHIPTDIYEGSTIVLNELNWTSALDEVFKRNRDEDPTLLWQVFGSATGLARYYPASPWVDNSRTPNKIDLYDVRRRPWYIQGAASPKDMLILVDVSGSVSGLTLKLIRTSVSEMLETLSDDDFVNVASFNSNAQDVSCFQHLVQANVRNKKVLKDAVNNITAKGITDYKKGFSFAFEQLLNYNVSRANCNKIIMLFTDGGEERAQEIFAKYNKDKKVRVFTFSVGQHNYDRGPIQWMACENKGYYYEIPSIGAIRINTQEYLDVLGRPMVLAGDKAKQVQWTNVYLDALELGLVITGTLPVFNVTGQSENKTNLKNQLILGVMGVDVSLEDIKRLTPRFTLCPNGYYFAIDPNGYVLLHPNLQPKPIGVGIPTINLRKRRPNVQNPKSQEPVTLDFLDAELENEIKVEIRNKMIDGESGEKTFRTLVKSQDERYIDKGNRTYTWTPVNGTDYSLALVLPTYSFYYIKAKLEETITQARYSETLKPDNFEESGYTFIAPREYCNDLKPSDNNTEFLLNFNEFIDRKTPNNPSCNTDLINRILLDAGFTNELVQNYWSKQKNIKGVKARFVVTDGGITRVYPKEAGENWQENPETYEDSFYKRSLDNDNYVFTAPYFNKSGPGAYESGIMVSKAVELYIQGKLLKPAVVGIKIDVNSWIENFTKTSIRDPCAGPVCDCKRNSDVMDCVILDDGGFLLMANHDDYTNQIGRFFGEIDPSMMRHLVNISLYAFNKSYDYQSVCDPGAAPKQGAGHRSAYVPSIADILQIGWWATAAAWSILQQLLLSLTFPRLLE
N-type calcium channels, sequence (O08532 957-1103 partner limits assumed): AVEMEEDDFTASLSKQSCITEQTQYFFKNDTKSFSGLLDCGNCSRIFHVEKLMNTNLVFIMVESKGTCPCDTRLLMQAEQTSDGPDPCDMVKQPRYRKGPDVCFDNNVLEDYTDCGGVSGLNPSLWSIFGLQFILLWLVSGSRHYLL
N-type calcium channels, sequence (P54285 whole entry partner): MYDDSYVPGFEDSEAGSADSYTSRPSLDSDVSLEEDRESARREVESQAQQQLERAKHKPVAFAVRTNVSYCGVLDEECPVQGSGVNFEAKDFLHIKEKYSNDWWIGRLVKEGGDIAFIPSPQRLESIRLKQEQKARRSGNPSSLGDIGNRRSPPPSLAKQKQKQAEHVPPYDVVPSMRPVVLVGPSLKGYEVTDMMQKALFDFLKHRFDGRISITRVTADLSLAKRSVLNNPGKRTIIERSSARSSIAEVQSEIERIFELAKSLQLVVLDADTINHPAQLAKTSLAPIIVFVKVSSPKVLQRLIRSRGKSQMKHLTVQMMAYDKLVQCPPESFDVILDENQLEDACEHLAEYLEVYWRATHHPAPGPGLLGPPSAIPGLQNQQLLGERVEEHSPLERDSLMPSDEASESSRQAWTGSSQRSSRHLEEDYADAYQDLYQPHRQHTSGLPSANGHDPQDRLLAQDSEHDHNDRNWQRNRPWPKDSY

For the compound “1987: D-isomer of Tat-NR2B9c ([dY]G[dR][dK][dK][dR][dR][dQ][dR][dR][dR][dA][dL][dS][dS][dI][dE][dS][dD][dV]) [Peptide 1987]”, in the data set with N-type calcium channels, the “Ca2+ current shown as a percentage (normalized to current before peptide)” value is on record as 82+/−2.2% and the “inhibition of N-type calcium channel activity (in words)” value is listed as “significant improvement in channel activity over TAT alone although still displayed some reduction”.

On to `N[C@@H](Cc1ccc(O)c(O)c1)C(=O)O` [Levodopa], for which, in data set [1], the halflife entry was “halflife = 1.5 hrs”.

Regarding `CC[C@H](C)C(=O)O[C@H]1C[C@H](O)C=C2C=C[C@H](C)[C@H](CC[C@@H](O)C[C@@H](O)CC(=O)O)[C@H]21` [Pravachol ® (pravastatin), pravastatin], the bioavailability result in data set [1] is “efficacy, low”.

Take `NCCCC[C@H](N[C@@H](CCc1ccccc1)C(=O)O)C(=O)N1CCC[C@H]1C(=O)O` [Prinivil ® (lininopril), lininopril]: the halflife result in data set [1] is reported as “crossing, 12 hr”.

Turning to “FGRKKRRQRRRALSSIESDV (also: fluorescent label, place not given here (F-Tat-NR2B9c)) [Peptide 1995]”, the “Ca2+ current shown as a percentage (normalized to current before peptide)” value in the data set with N-type calcium channels (setting [3]) is given as 97+/−0.2%.

Turning to “FGRKKRRQRRRKLSSIESDV (also: fluorescent label, place not given here (F-Tat-NR2B9c)) [Peptide 1993]”, the “inhibition of N-type calcium channel activity (in words)” value with N-type calcium channels (FIG. 2, peptide at 100 μM) is on record as “no significant inhibition”. For the same compound, the “Ca2+ current shown as a percentage (normalized to current before peptide)” value in the data set with N-type calcium channels (setting [3]) is listed as 91+/−1.6%. The “reduction of infarct size” value in data set [2] is on record as “equally effective in reducing infarct size”.

As for “KLSSIESDV (Synthetic active peptide - 1991 2B9c) [Peptide 1991]”, the “inhibition of N-type calcium channel activity (in words)” value in the data set with N-type calcium channels (FIG. 2, peptide at 100 μM) is given as “no significant inhibition”. In the data set with N-type calcium channels (setting [3]), the “Ca2+ current shown as a percentage (normalized to current before peptide)” value was 94+/−1.7%.

Regarding “YGRKKRRQRRR [Peptide 1990, reference compound]”, the “Ca2+ current shown as a percentage (normalized to current before peptide)” value in the data set with N-type calcium channels was 57+/−1.6%.

With “YGRKKRRQRRRALSSIESDV (Synthetic peptide - 1994 Tat-NR2B9c K to A) [Peptide 1994]”, the “inhibition of N-type calcium channel activity (in words)” value with N-type calcium channels (FIG. 2, peptide at 100 μM) was “significant improvement in channel activity over TAT alone although still displayed some reduction”; with N-type calcium channels (FIG. 2, peptide at 100 μM, listed as 1994 Tat-NR2B9c K to A) it was “no significant inhibition”. In addition, the “Ca2+ current shown as a percentage (normalized to current before peptide)” value with N-type calcium channels (setting [3]) is given as 77+/−1.8%.

On to “YGRKKRRQRRRKLSSIEADA (Synthetic peptide - 1992 Tat-NR2B9c-AA) [Peptide 1992]”, for which, in the data set with N-type calcium channels (FIG. 2, peptide at 100 μM), the “inhibition of N-type calcium channel activity (in words)” value was “significant improvement in channel activity over TAT alone although still displayed some reduction”. The “Ca2+ current shown as a percentage (normalized to current before peptide)” value with N-type calcium channels (setting [3]) is 74+/−2.4%.

On to “YGRKKRRQRRRKLSSIESDV [Tat-NR2B9c, reference compound]”, for which the “inhibition of radiolabeled ω-Conotoxin GVIA binding to N-type Ca channels” value with N-type Ca channels was found to be 100%. Also, in the data set with N-type calcium channels (100 μM, 0.07, 10, 20, 50 Hz, FIG. 6), the “frequency (use) dependence of block of Ca2+ currents” value is listed as “not frequency dependent”. Further, the “Ca2+ current shown as a percentage (normalized to current before peptide)” value with N-type calcium channels (setting [3]) is 68+/−1.7%. Further, the “voltage dependence of inhibition of Ca2+ current” value in the data set with N-type calcium channels (steps from −40 to +50 mV, FIG. 7) is “independent of voltage”. Besides, the “neuroprotection, infarct size” value in the data set with MCAO model of stroke is “neuroprotective as seen by a reduced infarct size”. Moreover, in data set [2] (setting [4]), the “infarct size (percent of hemisphere)” value was “significantly decreased infarct sizes”. For the same compound, in data set [2], the “reduction of infarct size” value was “equally effective in reducing infarct size”.

Regarding “YGRKKRRQRRRKLSSIESDX (YGRKKRRQRRRKLSSIESD[Nva]) [Peptide 1976]”, in data set [2] (setting [4]), the “infarct size (percent of hemisphere)” value is listed as “significantly decreased infarct sizes”.

Consider “YGRKKRRQRRRKLSSIESDX [1976] (YGRKKRRQRRRKLSSIESD[Nva]) [Peptide 1976]”, for which, in the data set with N-type calcium channels (setting [3]), the “Ca2+ current shown as a percentage (normalized to current before peptide)” value is 66+/−3.4%.

Turning to “YGRKKRRQRRRKLSSIESDX [1977] (YGRKKRRQRRRKLSSIESD[Tle]) [Peptide 1977]”, the “Ca2+ current shown as a percentage (normalized to current before peptide)” value in the data set with N-type calcium channels (setting [3]) was 65+/−5.1%.

As for “YGRKKRRQRRRKLSSIETDX (YGRKKRRQRRRKLSSIETD[Nva]) [Peptide 1975]”, in data set [2] (setting [4]), the “infarct size (percent of hemisphere)” value is recorded as “some reduction in infarct size”.

Turning to “YGRKKRRQRRRKLSSIEXDV (YGRKKRRQRRRKLSSIE[L‑2‑amino‑3‑ureidopropionic acid]DV) [Peptide 1978]”, the “infarct size (percent of hemisphere)” value in data set [2] (rat, in vivo, iv) is reported as “some reduction in infarct size”.
